Experimental data: patent US6387696

Key:
[1] = target: recombinant human calcium channel α1B-2β1-2 on transfected HEK293 cells (human); assay: saturation binding of 125I-ω-CgTx GVIA to transiently transfected HEK293 cells
[2] = target: recombinant human calcium channel α1B-1β1-3 on transfected HEK293 cells (human); assay: as above
[3] = target: recombinant human calcium channel α1B-2β1-3 on transfected HEK293 cells (human); assay: as above
[4] = target: recombinant human calcium channel α1B-2α2bβ1-3 on transfected HEK293 cells (human); assay: as above
[5] = target: recombinant human calcium channel α1B-1β1-2 on transfected HEK293 cells (human); assay: as above
[6] = target: recombinant human calcium channel α1B-2α2bβ1-2 on transfected HEK293 cells (human); assay: as above
[7] = target: recombinant human calcium channel α1B-1α2bβ1-2 on transfected HEK293 cells (human); assay: as above
recombinant human calcium channel α1B-1α2bβ1-2 on transfected HEK293 cells (human), sequence (B1AQK5 whole entry, chain 1 of 3): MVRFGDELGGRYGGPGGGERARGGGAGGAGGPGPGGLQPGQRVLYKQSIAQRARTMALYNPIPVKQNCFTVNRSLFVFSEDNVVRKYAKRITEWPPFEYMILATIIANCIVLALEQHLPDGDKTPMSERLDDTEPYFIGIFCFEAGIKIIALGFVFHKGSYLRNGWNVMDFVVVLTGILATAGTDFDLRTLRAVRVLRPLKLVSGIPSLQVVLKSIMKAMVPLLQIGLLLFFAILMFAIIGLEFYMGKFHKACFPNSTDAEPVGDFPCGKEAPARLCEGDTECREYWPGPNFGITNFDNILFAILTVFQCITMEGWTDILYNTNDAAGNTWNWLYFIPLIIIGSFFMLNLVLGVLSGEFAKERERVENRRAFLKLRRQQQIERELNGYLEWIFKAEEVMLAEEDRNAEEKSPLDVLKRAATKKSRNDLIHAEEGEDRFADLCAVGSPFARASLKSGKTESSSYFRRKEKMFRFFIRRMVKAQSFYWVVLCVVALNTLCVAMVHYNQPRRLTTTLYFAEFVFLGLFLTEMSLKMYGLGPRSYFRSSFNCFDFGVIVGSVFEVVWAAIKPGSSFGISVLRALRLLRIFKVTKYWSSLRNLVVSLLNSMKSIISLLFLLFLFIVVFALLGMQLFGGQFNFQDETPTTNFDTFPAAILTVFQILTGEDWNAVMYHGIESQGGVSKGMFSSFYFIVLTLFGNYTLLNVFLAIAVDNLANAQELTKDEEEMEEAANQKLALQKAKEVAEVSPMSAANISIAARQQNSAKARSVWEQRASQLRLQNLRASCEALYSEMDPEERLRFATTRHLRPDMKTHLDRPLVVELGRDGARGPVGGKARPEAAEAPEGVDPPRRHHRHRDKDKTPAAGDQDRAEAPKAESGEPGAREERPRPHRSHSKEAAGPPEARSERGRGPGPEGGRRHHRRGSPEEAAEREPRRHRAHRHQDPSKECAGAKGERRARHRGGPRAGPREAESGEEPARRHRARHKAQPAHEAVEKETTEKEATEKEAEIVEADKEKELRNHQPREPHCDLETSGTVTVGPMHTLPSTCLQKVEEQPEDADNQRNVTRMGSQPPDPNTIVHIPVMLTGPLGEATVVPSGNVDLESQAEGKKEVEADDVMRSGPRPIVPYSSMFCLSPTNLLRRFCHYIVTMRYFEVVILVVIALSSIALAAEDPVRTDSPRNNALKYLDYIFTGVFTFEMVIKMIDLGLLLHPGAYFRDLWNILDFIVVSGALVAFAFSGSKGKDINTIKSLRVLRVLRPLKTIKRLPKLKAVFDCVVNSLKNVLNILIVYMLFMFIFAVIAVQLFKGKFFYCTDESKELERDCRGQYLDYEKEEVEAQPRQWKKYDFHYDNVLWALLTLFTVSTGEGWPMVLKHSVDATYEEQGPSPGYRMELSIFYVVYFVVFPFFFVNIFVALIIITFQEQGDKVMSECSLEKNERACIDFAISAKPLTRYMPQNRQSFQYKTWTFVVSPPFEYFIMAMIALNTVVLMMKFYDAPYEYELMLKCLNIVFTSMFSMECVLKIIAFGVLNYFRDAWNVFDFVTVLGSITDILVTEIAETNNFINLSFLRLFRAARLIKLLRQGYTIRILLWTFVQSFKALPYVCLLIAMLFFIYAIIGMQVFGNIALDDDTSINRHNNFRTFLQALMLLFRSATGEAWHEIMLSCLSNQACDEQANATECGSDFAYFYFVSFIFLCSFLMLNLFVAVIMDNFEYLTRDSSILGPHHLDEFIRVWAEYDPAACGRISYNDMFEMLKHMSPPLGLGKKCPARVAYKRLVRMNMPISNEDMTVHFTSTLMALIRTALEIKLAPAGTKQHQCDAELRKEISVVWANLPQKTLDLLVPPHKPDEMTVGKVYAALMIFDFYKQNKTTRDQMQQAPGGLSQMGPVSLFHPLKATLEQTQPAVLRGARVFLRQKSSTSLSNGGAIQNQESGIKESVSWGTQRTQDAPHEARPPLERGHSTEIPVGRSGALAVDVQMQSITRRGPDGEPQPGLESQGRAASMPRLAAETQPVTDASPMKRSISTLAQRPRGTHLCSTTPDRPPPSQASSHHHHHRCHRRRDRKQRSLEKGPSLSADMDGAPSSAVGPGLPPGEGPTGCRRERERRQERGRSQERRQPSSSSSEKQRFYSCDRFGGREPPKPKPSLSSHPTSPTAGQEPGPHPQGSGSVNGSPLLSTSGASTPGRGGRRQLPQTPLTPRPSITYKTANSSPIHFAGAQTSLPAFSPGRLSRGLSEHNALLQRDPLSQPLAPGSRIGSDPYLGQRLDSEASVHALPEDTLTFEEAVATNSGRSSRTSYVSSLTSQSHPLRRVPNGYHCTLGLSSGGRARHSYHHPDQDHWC
recombinant human calcium channel α1B-1α2bβ1-2 on transfected HEK293 cells (human), sequence (P54289 whole entry, chain 2 of 3, further chain): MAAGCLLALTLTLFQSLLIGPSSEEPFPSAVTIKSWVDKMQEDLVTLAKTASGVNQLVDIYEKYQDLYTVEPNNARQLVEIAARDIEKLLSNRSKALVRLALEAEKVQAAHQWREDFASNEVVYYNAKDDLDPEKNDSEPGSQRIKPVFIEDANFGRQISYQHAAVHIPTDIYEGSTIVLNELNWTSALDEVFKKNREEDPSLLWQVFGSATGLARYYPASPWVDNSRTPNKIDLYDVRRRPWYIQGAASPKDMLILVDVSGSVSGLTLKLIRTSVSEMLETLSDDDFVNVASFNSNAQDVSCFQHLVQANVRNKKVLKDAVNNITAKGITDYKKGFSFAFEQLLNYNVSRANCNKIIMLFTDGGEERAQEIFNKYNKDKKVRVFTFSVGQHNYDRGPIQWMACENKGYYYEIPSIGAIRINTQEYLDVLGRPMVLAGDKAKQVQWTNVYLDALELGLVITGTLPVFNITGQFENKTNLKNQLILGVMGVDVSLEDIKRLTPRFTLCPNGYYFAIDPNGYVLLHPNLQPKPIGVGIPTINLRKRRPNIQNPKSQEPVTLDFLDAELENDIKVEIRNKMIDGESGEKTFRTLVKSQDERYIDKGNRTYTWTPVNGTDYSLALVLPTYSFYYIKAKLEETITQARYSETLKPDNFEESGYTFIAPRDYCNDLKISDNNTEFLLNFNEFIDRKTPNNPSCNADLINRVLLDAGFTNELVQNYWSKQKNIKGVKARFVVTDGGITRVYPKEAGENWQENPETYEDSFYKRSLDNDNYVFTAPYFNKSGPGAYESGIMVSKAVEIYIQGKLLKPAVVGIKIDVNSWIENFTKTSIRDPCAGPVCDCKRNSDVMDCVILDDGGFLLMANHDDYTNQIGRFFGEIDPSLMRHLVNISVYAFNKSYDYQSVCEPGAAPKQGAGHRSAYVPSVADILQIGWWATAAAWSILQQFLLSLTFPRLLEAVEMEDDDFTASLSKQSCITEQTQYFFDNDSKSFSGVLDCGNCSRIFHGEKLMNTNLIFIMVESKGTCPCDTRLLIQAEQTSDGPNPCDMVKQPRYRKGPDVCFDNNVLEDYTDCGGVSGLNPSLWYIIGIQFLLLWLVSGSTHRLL
recombinant human calcium channel α1B-1α2bβ1-2 on transfected HEK293 cells (human), sequence (A8K114 whole entry, chain 3 of 3, further chain): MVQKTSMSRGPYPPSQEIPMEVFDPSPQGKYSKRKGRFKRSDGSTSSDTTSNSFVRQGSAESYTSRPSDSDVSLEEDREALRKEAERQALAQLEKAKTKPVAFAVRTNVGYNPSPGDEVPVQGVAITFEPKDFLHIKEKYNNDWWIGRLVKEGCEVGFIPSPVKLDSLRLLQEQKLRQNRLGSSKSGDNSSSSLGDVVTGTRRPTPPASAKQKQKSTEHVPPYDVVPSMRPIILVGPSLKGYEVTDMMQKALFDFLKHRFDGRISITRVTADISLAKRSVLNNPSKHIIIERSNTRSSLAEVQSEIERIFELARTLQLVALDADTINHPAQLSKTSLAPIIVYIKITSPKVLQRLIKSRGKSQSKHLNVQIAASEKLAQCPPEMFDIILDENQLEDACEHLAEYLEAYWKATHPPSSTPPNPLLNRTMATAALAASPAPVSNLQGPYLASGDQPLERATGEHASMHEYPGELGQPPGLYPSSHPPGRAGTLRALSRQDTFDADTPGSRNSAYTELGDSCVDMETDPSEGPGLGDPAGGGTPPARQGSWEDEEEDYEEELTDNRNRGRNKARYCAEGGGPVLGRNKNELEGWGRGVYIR

[8] = target: recombinant human calcium channel α1B-1α2bβ1-2 on transfected HEK293 cells (human); assay: ω-CgTx binding to transiently transfected HEK293 cells (8, 5 and 2 µg plasmids)
[9] = target: T1, recombinant human calcium channel α1B-1α2b on transfected HEK293 cells (human)
T1 sequence (B1AQK5 whole entry, chain 1 of 2): as the sequence (B1AQK5 whole entry, chain 1 of 3) above
T1 sequence (P54289 whole entry, chain 2 of 2, further chain): as the sequence (P54289 whole entry, chain 2 of 3, further chain) above

[10] = target: human calcium channel α1B-1 subunit alone on transfected HEK293 cells (human)
human calcium channel α1B-1 subunit alone on transfected HEK293 cells (human), sequence (B1AQK5 whole entry): as the sequence (B1AQK5 whole entry, chain 1 of 3) above

[11] = target: T1, recombinant human calcium channel …; assay: saturation binding of 125I-ω-CgTx GVIA to transiently transfected HEK293 cells

recombinant human calcium channel α1B-1β1-3 on transfected HEK293 cells (human), sequence (B1AQK5 whole entry, chain 1 of 2): as the sequence (B1AQK5 whole entry, chain 1 of 3) above
recombinant human calcium channel α1B-1β1-3 on transfected HEK293 cells (human), sequence (A8K114 whole entry, chain 2 of 2, further chain): as the sequence (A8K114 whole entry, chain 3 of 3, further chain) above

125I-ω-CgTx GVIA (from UniProt P01522 46-72) (peptide)
Bmax (sites/cell) [1]: 2130 sites/cell | Kd [1]: 0.0164 nM | Bmax (sites/cell) [2]: 8730 sites/cell | Kd [2]: 0.0179 nM | fold change of surface binding (Bmax) against α1B-1 alone [2]: 10 fold | Bmax (sites/cell) [3]: 2940 sites/cell | Kd [3]: 0.0222 nM | Bmax (sites/cell) [4]: 37700 sites/cell | Kd [4]: 0.0443 nM | fold change of binding capacity (Bmax) against α1B-2α2bβ1-2 [4]: 2 fold | fold change of surface receptor density (Bmax) against α1B-2β1-3 [4]: 13 fold | Bmax (sites/cell) [5]: 5760 sites/cell | Kd [5]: 0.0179 nM | fold change of surface binding (Bmax) against α1B-1 alone [5]: 8 fold | Bmax (sites/cell) [6]: 19400 sites/cell | Kd [6]: 0.053 nM | fold change of surface receptor density (Bmax) against α1B-2β1-2 [6]: 9 fold | Bmax (sites/cell) [7]: 45300 sites/cell | Kd [7]: 0.0549 nM | fold change of binding sites per cell (Bmax) against α1B-2α2bβ1-2 [7]: 2.5 fold | fold change of surface receptor density (Bmax) against α1B-1β1-2 [7]: 8 fold

ω-CgTx (from UniProt P01522 46-72) (peptide)
Kd [8]: 0.0546 nM | binding capacity (Bmax) (sites per cell) [8]: 28700

CKSPGSSCSPTSYNCCRSCNPYTKRCY (modifications not checked) [125I-ω-CgTx GVIA, P01522 46-72]
Bmax (sites/cell) [9]: 2260 sites/cell | Kd [9]: 0.0846 nM | Bmax (sites/cell) [10]: 757 sites/cell | Kd [10]: 0.0317 nM | fold change of binding capacity (Bmax) against α1B-1 alone [11]: 3 fold
